Assay results from paper PMC10987521, “An all-in-one tetrazine reagent for cysteine-selective labeling and bioorthogonal activable prodrug construction” (Nature Communications, 2024).
Like-named read-outs stand apart in the source and are kept apart here.

Key:
[1] = Nano-structure characterization of peptide conjugates (Tyndall effect, DLS, zeta potential, TEM); format: physicochemical; conditions: 50 μM in H2O (2% DMSO), sonicated 10 min; mean of 3 measurements
Procedure: The second-order rate constant for the labeling reactions between tetrazine 1 and Cys was determined at 25 °C in PB (30% MeCN, 20 mM, pH 8.0) under second-order conditions using a 6000+ (Quawell) UV-Vis spectrophotometer. The concentrations of cysteine and tetrazine were identical. The specific difference in absorption wavelength (300 nm) between 1 and Cys-1 was measured over time. The second-order rate constant k2 was calculated from the slope of a plot of (1/c – 1/c0) versus time.
5. Competitive labeling reaction with other nucleophilic amino acids
For the competitive labeling experiment, 10 equiv. (2 mM) of N-Fmoc-Lys, N-Fmoc-Arg, Ser, Tyr, and 1.3 equiv. […] The resulting solution was maintained at 25 °C and monitored by LC –MS. […]
Each voTz analogue (1.1 equiv.) was added to a 0.25 mL vial containing solvent. […] The chromatogram peak areas of all relevant Cys -containing species were integrated, and the yiel d was determined using the following equation: Yield (%) = Iproduct/(Istarting + Iproduct + Ioxidation + Iside product) × 100, where Istarting, Iproduct, Ioxidation, and Iside product respectively represent the average ion counts of remaining starting material, product, oxidized starting material and any side product, if present 2. […]
DLS analyses and particle zeta potential values were determined using a Nano ZS ZEN 3690 instrument (Malvern […]

[2] = format: physicochemical; conditions: PBS pH 7.4, 10% DMSO, 37 °C; for intact (%) under 10 mM GSH at 2 μM: 520 nm HPLC–MS; for intact (%) under 10 mM GSH: 520 nm HPLC–MS (PyTz UV–Vis)
Procedure: All tetrazine compounds were diluted to a concentration of 50 μM or 2 μM using PBS (10% DMSO, pH 7.4). A stock solution of GSH (400 mM in PBS) was then added to achieve a final concentration of 10 mM. The mixture was homogenized and incubated at 37 °C for 12 h. The stability of the compounds (including all peptide conjugates and PmTz) was assessed by measuring the decrease in peak area at 520 nm (with the initial peak area at 0 min defined as 100%). This measurement was monitored by HPLC–MS. Similarly, the stability of PyTz was determined by monitoring the decrease in peak intensity at 520 nm using UV–Vis. Statistical analysis was performed on data from three replicates to calculate the mean and standard deviation. […]
Response 1: We appreciate your comment. We conducted stability tests on RGD-Dox and RGD-SN-38 in 10 mM GSH at a concentration of 2 μM, which is below the critical micelle concentrations. After incubating at 37 °C for 12 hours, we observed that 95% of RGD-Dox and 85% of RGD-SN-38 remained intact. This stability is slightly less than […]
the observed stability is intrinsic to the peptide-drug conjugates, with a slight enhancement due to micelle […]
concentrations, after 12 hours of incubation at 37 °C (Figure S46). […]
intrinsic to the PDCs, with a slight enhancement by micelle formation.
Details of these experiments have been included in the Supplementary Information (Page S42), as outlined below:
RGD-Dox and RGD-SN-38 were diluted to a concentration of 2 μM using PBS (10% DMSO, pH 7.4). A stock solution of GSH (400 mM in PBS) was then added to achieve a final concentration of 10 mM. The mixture was homogenized and incubated at 37 °C for 12 hours. Stability was assessed by measuring the decrease in peak area at 520 nm (with the initial peak area at 0 min defined as 100%). This measurement was monitored by HPLC–MS. Statistical analysis was performed on data from three replicates to calculate the mean and standard deviation.

COc1cccc2c1C(=O)c1c(O)c3c(c(O)c1C2=O)C[C@@](O)(C(=O)CO)C[C@@H]3O[C@H]1C[C@H](NC(=O)OCc2nnc(CCSC[C@@H]3NC(=O)[C@@H](Cc4ccc(O)cc4)NC(=O)[C@H](CC(=O)O)NC(=O)CNC(=O)[C@H](CCCNC(=N)N)NC3=O)nn2)[C@H](O)[C@H](C)O1 [RGD-Dox]
average particle diameter (DLS) [1]: 168 nm | intact (%) under 10 mM GSH at 2 μM ([2]; 1 h, Data 1, 2 μM (below CMC)): 98% | intact (%) under 10 mM GSH ([2]; 1 h, Data 1, 50 μM): 98.414% | intact (%) under 10 mM GSH at 2 μM ([2]; 1 h, Data 2, 2 μM (below CMC)): 96.5% | intact (%) under 10 mM GSH ([2]; 1 h, Data 2, 50 μM): 98.1% | intact (%) under 10 mM GSH at 2 μM ([2]; 1 h, Data 3, 2 μM (below CMC)): 98% | intact (%) under 10 mM GSH ([2]; 1 h, Data 3, 50 μM): 97% | intact (%) under 10 mM GSH at 2 μM ([2]; 3 h, Data 1, 2 μM (below CMC)): 93.4% | intact (%) under 10 mM GSH ([2]; 3 h, Data 1, 50 μM): 95.9241% | intact (%) under 10 mM GSH at 2 μM ([2]; 3 h, Data 2, 2 μM (below CMC)): 94.4% | intact (%) under 10 mM GSH ([2]; 3 h, Data 2, 50 μM): 96.1928% | intact (%) under 10 mM GSH at 2 μM ([2]; 3 h, Data 3, 2 μM (below CMC)): 94.5% | intact (%) under 10 mM GSH ([2]; 3 h, Data 3, 50 μM): 97.3114% | intact (%) under 10 mM GSH at 2 μM ([2]; 5 h, Data 1, 2 μM (below CMC)): 94.7% | intact (%) under 10 mM GSH at 2 μM ([2]; 5 h, Data 2, 2 μM (below CMC)): 95% | intact (%) under 10 mM GSH at 2 μM ([2]; 5 h, Data 3, 2 μM (below CMC)): 94.9% | intact (%) under 10 mM GSH at 2 μM ([2]; 8 h, Data 1, 2 μM (below CMC)): 95% | intact (%) under 10 mM GSH ([2]; 8 h, Data 1, 50 μM): 93.681% | intact (%) under 10 mM GSH at 2 μM ([2]; 8 h, Data 2, 2 μM (below CMC)): 95.7% | intact (%) under 10 mM GSH ([2]; 8 h, Data 2, 50 μM): 93.4607% | intact (%) under 10 mM GSH at 2 μM ([2]; 8 h, Data 3, 2 μM (below CMC)): 96% | intact (%) under 10 mM GSH ([2]; 8 h, Data 3, 50 μM): 95.7% | remained intact with 10 mM GSH at 2 μM ([2]; 12 h, 2 μM (below CMC), HPLC–MS 520 nm, mean of n = 3): 95% | remained intact with 10 mM GSH ([2]; 12 h, 50 μM, HPLC–MS peak area 520 nm, mean of n = 3): 96% | intact (%) under 10 mM GSH at 2 μM ([2]; 12 h, Data 1, 2 μM (below CMC)): 96% | intact (%) under 10 mM GSH ([2]; 12 h, Data 1, 50 μM): 94.9% | intact (%) under 10 mM GSH at 2 μM ([2]; 12 h, Data 2, 2 μM (below CMC)): 95.4% | intact (%) under 10 mM GSH ([2]; 12 h, Data 2, 50 μM): 97.6967% | intact (%) under 10 mM GSH at 2 μM ([2]; 12 h, Data 3, 2 μM (below CMC)): 97% | intact (%) under 10 mM GSH ([2]; 12 h, Data 3, 50 μM): 96.3405%
